Data: IntAct's records for PubMed 17986188

B1: Cell division protein FtsA (Escherichia coli (strain K12)), P0ABH0 (parent)
chain: MIKATDRKLVVGLEIGTAKVAALVGEVLPDGMVNIIGVGSCPSRGMDKGGVNDLESVVKCVQRAIDQAELMADCQISSVYLALSGKHISCQNEIGMVPISEEEVTQEDVENVVHTAKSVRVRDEHRVLHVIPQEYAIDYQEGIKNPVGLSGVRMQAKVHLITCHNDMAKNIVKAVERCGLKVDQLIFAGLASSYSVLTEDERELGVCVVDIGGGTMDIAVYTGGALRHTKVIPYAGNVVTSDIAYAFGTPPSDAEAIKVRHGCALGSIVGKDESVEVPSVGGRPPRSLQRQTLAEVIEPRYTELLNLVNEEILQLQEKLRQQGVKHHLAAGIVLTGGAAQIEGLAACAQRVFHTQVRIGAPLNITGLTDYAQEPYYSTAVGLLHYGKESHLNGEAEVEKRVTASVGSWIKRLNSWLRKEF
partner: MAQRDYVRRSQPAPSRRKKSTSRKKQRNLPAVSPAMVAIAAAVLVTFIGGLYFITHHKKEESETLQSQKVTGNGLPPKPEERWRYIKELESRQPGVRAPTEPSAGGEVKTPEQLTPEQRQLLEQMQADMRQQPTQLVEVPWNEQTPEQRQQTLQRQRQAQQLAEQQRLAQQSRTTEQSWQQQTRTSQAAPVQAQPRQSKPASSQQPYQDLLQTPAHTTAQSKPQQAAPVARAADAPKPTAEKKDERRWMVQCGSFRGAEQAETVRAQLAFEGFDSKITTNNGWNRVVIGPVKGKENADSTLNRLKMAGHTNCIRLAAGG
B2: Cell division protein FtsA (Escherichia coli (strain K12)), P0ABH0 (parent)
chain: B1 chain

Variants of: B1
Conditions: with ftsn_ecoli ftsN

Row | Variant | effect of a mutation on the interaction
1 | M71A | decreasing interaction strength
2 | E69P | decreasing interaction strength

Variants of: B2
Conditions: with ftsz_ecoli ftsZ

Row | Variant | effect of a mutation on the interaction
3 | R286W | increasing interaction strength
4 | E69P | decreasing interaction strength
